Reference: US20030078374A1, “Complementary peptide ligands generated from the human genome” (priority 1999, published 2003)

Assays:
IL-1β = IL-1β (Homo sapiens, UniProt P01584); test: two independent in vitro bioassays of IL-1β biological activity; assay type: cell-based; details: effect dependent on the peptide sequence
Source text: The programme identified the antisense region LITVLNI in the interleukin 1 type 1 receptor (IL-1R).
The effect is dependent on the peptide sequence.

IL-1 [1] = molecular target: T1, IL-1 (Homo sapiens, UniProt P01584); test: direct binding to IL-1 by biosensing techniques
T1 sequence (P01584 117-269): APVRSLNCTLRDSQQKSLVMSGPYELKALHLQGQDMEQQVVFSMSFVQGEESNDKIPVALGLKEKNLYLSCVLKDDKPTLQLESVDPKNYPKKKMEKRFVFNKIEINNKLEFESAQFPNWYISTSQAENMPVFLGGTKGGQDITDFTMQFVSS

IL-1 [2] = molecular target: T1, IL-1; test: Serum Amyloid IL-1 assay; assay type: cell-based

Chain of IL-1β (P01584 117-269): as above

- direct binding to IL-1 (IL-1 [1]): shown to bind directly to IL-1
- inhibition of IL-1 activity (same effect) in Serum Amyloid IL-1 assay (IL-1 [2]): same effect is also seen
Substance: LITVLNI [antisense region in the interleukin 1 type 1 receptor (IL-1R) identified by the programme]
- inhibition of the biological activity of IL-1β (IL-1β): shown to inhibit the biological activity of IL-1β
